For orientation: IC50 means the concentration at which inhibition is half-maximal.

Results on 1 molecule are retold here after publication PMC8923076 (Cell chemical biology, 2021).

This assay deals with GST-fused GAS41 YEATS domain (residues 1-148) (human, UniProt O95619 1-148). Kind of assay: fluorescence polarisation.
GST-fused GAS41 YEATS domain (residues 1-148), sequence (O95619 1-148): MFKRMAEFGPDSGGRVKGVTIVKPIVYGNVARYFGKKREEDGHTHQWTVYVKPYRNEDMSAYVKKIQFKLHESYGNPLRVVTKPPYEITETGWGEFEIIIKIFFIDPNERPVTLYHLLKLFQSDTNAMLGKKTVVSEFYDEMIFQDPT

B1: H3K18acK27ac peptide (peptide)
peptide: GGKAPRKQLATKAARKSAP
modifications: N-terminal acetyl; acetyl-lysine at K18 and K27; C-terminal amide
Molecule B1 showed an IC50 of 50 µM.
